Test in all cases: EMSA
Background: In EMSA bound probe runs differently from free probe, usually more slowly.

For one data set, the target named is T1, C.Csp231I C-ARQ (Cmut) (Citrobacter sp. (Csp231I R-M system), UniProt Q32WH4 1-98, A33G;R34E;Q37A).
T1 sequence: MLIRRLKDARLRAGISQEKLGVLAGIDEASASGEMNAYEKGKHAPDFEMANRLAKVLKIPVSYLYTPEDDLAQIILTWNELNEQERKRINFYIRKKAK

Data set [1] deals with T2, C.Csp231I (C protein, WT) (Citrobacter sp. (Csp231I R-M system), UniProt Q32WH4 1-98).
T2 sequence: T1 sequence with G33A, E34R, A37Q

Data set [2] has as its target T2, C.Csp231I (C protein, WT). This is another data set of the same source.

Numbering of substitutions follows the chain as printed. Where two headings read alike, the source gives them in different places.

B1: racR (176 bp) (dsDNA)
DNA 1: GCGACGCCTAACGCAATTGTCAATAGGCTGTGCCTAATGCAGTAAGGGTAGGGATTGCCTAATGTAATGCGCATAGGAGAATATTAAGCAATGCTTAGTGGTAAAGACTTAGGCCGAGCGATAGAGCAGGCCATTAACAAAAAAATCGCATCGGGATCCGTCAAATCAAAGGCGG
DNA 2: CCGCCTTTGATTTGACGGATCCCGATGCGATTTTTTTGTTAATGGCCTGCTCTATCGCTCGGCCTAAGTCTTTACCACTAAGCATTGCTTAATATTCTCCTATGCGCATTACATTAGGCAATCCCTACCCTTACTGCATTAGGCACAGCCTATTGACAATTGCGTTAGGCGTCGC
As for B1, the binding result with C.Csp231I C-ARQ (Cmut) is given as “no binding”; in data set [1], “binds”.

B2: racRmut (176 bp) (dsDNA)
DNA 1: B1 DNA 1 with T95G, T96C, G98T
DNA 2: B1 DNA 2 with C78A, A80G, A81C
As for B2, the binding result (in data set [2]; with C.Csp231I C-ARQ (Cmut)) was “no binding” throughout.

The values above are taken from article PMC6765115.
